Assay results reported in the DeepSol protein solubility set.

Assay: soluble on expression in E. coli; label from the status in PepcDB or PDB records

Row | Sequence | soluble on expression in E. coli
1 | RSLKNEELYHQSYDCVCVMFASIPDFKEFYTESDVNKEGLECLRLLNEIIADFDDLLSKPKFSGVEKIKTIGSTYMAATGLSAIPSQEHAQEPERQYMHIGTMVEFAYALVGKLDAINKHSFNDFKLRVGINHGPVIAGVIGAQKPQYDIWGNTVNVASRMDSTGVLDKIQVTEETSLILQTLGYTCTCRGIINVKGKGDLKTYFVNTEMSR | soluble
2 | RSTDTFNYATYHTLEEIYDFLDLLVAENPHLVSKIQIGNTYEGRPIYVLKFSTGGSKRPAIWIDTGIHSREWVTQASGVWFAKKITQDYGQDAAFTAILDTLDIFLEIVTNPDGFAFTHSTNRMWRKTRSHTAGSLCIGVDPNRNWDAGFGLSGASSNPCSETYHGKFANSEVEVKSIVDFVKDHGNIKAFISIHSYSQLLMYPYGYKTEPVPDQDELDQLSKAAVTALASLYGTKFNYGSIIKAIYQASGSTIDWTYSQGIKYSFTFELRDTGRYGFLLPASQIIPTAKETWLALLTIMEHTLNHP | soluble
3 | RTDTIMVLNVGNKDKKIKMVSFMRDTLVNIKGVSADNYSYDNKLNSAFNIGEQDNNQGAELMRQTLKRNFDIDIKYYVMVDFQTFAEAIDTLFPNGVEINAKFATVGGEAVDSVEVPDDLNMKDGVVPNQTISVGKQKMDGRTLLNYARFRKDDEGDFGRTKRQQQVMSAIMSQIKD | not soluble
4 | RTYGDGTKPQTDRVVGGLVVEYDITENIMVSAHYDRTKDEGSVDSGAYIVDGKPVRGDKYIWDAQWSKIDNDVENYGIDINAQVTDNVNVKAGYNRQDFKRFDVESYPKFDNYDKDGVIRHKGNERTDNWVFDTAYLDVTTNFSLLGTENTFLVGANYLDYKYDRFMASHAGEDVAAGTTVTRPGTVRSKKYPRREHDTWGIYAQNMMTINDYWQVLAGARYDEKREDSLTENQVSPKLGVIFHPTSNGSIYVQYSESFMPQGEVSNGSRIYINDGEKLDAERGISYEIGTKWELFDQRLFVSGAVFDITLENISLDVESGKDASNQLLHKKTQGGEQVHKGAELMAQGFVTPELSLTASAMYLDAELKKAERFEGNRPADVPEFSASLWSSYRVQDNTNLNLGLIYEGDRYGDAANTFKKDGYARIDMGVSYKHKYDENLDIIARFNVENLFDTDYLAGGGSTNGNQEGASGVVVGEGRNYMATIQFKY | not soluble
5 | RVAYIQIIEPDNLIKQGDLRSIRVKSIPSARGIISDRNGEPLAVSVPVEAVWADPATIFKENALSQKQNWYALADVLGVDRQGLIDKIKRNEKRRFIYLQRQVSPAMANYIRELKLPGIGLKSESRRYYPAGEVSAHLVGVTGIDGHGLEGVERSYDEWLTGEEGKKTIRKDRYGRVVENIAWQDKQEGKSLQLTIDQRLQAIAYRAIKQAVADHRATSGSVVMLDVKTGAVLAMVNAPSYNPNNRTDWQSYKMRNRVITDSMEPGSTIKPFVILAALENGVADKDTIVDTGNGVLRLGGSRVRDVSWVGKASLSMILKKSSNIGVTKLAMQMPVEALLGLYSSVGFGELSGLNLVGEVTGIFPTRTRWSPIERATIA | not soluble
6 | RVEVGGSGDAAAVLGLGAVLQGQGQGTSPSPSGLRPQPEAALPPLERLPKPVLVQVASRCRRNDSRSPTHRKITRGAVGLFHPQLYLSGGNCIECGNEMMSRGKFERLAGTATAKWHVSIKVLPSGVTLGKWLQQHGLPILQGEPRQWRRPRCPCATSCAARCRRASNRRK | not soluble
7 | RYIEKALKRPGNILIGTLPVGLDFPTRIVAEIVDAPSLTIEEIMRKAKYYLREGADIIDIGMESGKTNVEFLESVLPEIKEKINAPLSLDTLNPKEIEAGEKEVDLILSVDFGTVEEILPSKPVVLIPTNMKEGKFIEDPIGRAKALEKLKEKALNLGYKGLILDPILEHYPNFSRSLVAFYLYRMRNPQDILLAGVGNITEMMDADSVGLNALLASIAGELKISLLLTTEVSPKATGSVRELKRGIDMVLLGGVKDVGINLLILKEKRRKEQKIEFAKTIIRAKKKPVKLEEVYFKIYVVGTELAVTAYKGTNPVMTIIGKEPNEIIDTILEHFSISPRHAFYLGRELEKAYTGLKIRRSYIQEEELFGDFYFEK | not soluble
8 | RYWQLEVAPRRRADPPEALLELLDRSVTARMQGGPVGSMLSGGLDSGTVSMLASRRSEGPLPVISMKFDDHPEIDESEWIAKIHAAGRFRPVWIDGRDAHGGDVAELLAEQGGPFFAPNLATSRWLYRRAAEAGVEILLDGHGGDEVISFGVARLTELASEAQWRTLWQSTAAVSDLFGGSRREFFLNSMAQGAQSRWLRAMARRLNVGAKRDPRAWRQALHPALVARTGLVQRVQEAAGARKRGATDDIRQHVATLTAPRYPTTLEVLDRAATLCGIEPRYPFLERRLIEHCVAQPAAAKFHDGMTRALLRDAVRGLLPDEVRLRTSKTNFTPNVRARMLTSWGDNLNRIAGCNPGRIGDYVDLAVIREGIQRLRAGEPDQPALLQTMRAVVLDEWLR | not soluble
9 | SAAAADERSPEDGEDEEEEEQLVLVELSGIIDSDFLSKCENKCKVLGIDTERPILQVDSCVFAGEYEDTLGTCVIFEENVEHADTEGNNKTVLKYKCHTMKKLSMTRTLLTEKKEGEENIGGVEWLQIKDNDFSYRPNMICNFLHENEDEEVVASAPDKSLELEEEEIQMNDSSNLSCEQEKPMHLEIEDSGPLIDIPSETEGSVFMETQMLP | not soluble
10 | SAARRALKAVLVDLNGTLHIEDAAVPGAQEALKRLRATSVMVRFVTNTTKETKKDLLERLKKLEFEISEDEIFTSLTAARNLIEQKQVRPMLLLDDRALPEFTGVQTQDPNAVVIGLAPEHFHYQLLNQAFRLLLDGAPLIAIHKARYYKRKDGLALGPGPFVTALEYATDTKAMVVGKPEKTFFLEALRDADCAPEEAVMIGDDCRDDVDGAQNIGMLGILVKTGKYKAADEEKINPPPYLTCESFPHAVDHILQHLL | soluble
11 | SADCILVNSQFTAAVFKETFKSLSHIDPDVLYPSLNVTSFDSVVPEKLDDLVPKGKKFLLLSINRYERKKNLTLALEALVQLRGRLTSQDWERVHLIVAGGYDERVLENVEHYQELKKMVQQSDLGQYVTFLRSFSDKQKISLLHSCTCVLYTPSNEHFGIVPLEAMYMQCPVIAVNSGGPLESIDHSVTGFLCEPDPVHFSEAIEKFIREPSLKATMGLAGRARVKEKFSPEAFTEQLYRYVTKLLV | soluble
12 | SAPALLTAAQRTMLAQVGACNSHLTSDENMAINELRLHKPRLPKDTWFFTDPNKDPDDVVTYTLGKQLQAEGFVHITDVVATLGDAEVRSQRAEMAKGVFNKLGLHDVHVSRGRDYAMNSLQSKEHAKFLLEGHALRAGPGEIHRDSLQDMSRRLARAPHGVGIVVIAGMSDINALITTCPDMVRERVDDITIMGGVEPLKDADGFVQPDARAYNNATDMDAARSLYRKAQELGIPLRIVTKEAAYKTAVSPSFYEGIAGSGHPVGHYLRDVQKSALKGLWEGIQAGLLPGLDDSWFFRTFMPNAQIEAAQLDKNKESSFEDIWPKVTKLNLYDPLTLLASVPGAAKLLFKPKAIHTEGFGVVEQVGPDDVTHPEKAKLLMSALAKSALVQSTVAPD | soluble
13 | SAPEENAGTELLLQSFERRFLAARTLRSFPWQSLEAKLRDSSDSELLRDILHKTVKHPVCVKHPPSVKYARCFLSELIKKHEAVHTEPLDELYEALAETLMAKESTQGHRSYLLPSGGSVTLSESTAIISYGTTGLVTWDAALYLAEWAIENPAVFTNRTVLELGSGAGLTGLAICKMCRPRAYIFSDCHSRVLEQLRGNVLLNGLSLEADITAKLDSPRVTVAQLDWDVATVHQLSAFQPDVVIAADVLYCPEAIMSLVGVLRRLAACREDQRAPEVYVAFTVRNPETCQLFTTELGRAGIRWEVEPRHEQKLFPYEEHLEMAMLNLTL | soluble
14 | SAPVGVEKKLLLGPNGPAVAAAGDLTSEEEEGQSLWSSILSEVSTRARSKLPSGKNILVFGEDGSGKTTLMTKLQGAEHGKKGRGLEYLYLSVHDEDRDDHTRCNVWILDGDLYHKGLLKFAVSAESLPETLVIFVADMSRPWTVMESLQKWASVLREHIDKMKIPPEKMRELERKFVKDFQDYMEPEEGCQGSPQRRGPLTSGSDEENVALPLGDNVLTHNLGIPVLVVCTKCDAVSVLEKEHDYRDEHLDFIQSHLRRFCLQYGAALIYTSVKEEKNLDLLYKYIVHKTYGFHFTTPALVVEKDAVFIPAGWDNEKKIAILHENFTTVKPEDAYEDFIVKPPVRKLVHDKELAAEDEQVFLMKQQSLLAKQPATPTRASESPARGPSGSPRTQGRGGPASVPSSSPGTSVKKPDPNIKNNAASEGVLASFFNSLLSKKTGSPGSPGAGGVQSTAKNSGQKTVLSNVQEELDRMTRKPDSMVTNSSTENEA | soluble
15 | SASLDRVKVLVLGDSGVGKSSLVHLLCQNQVLGNPSWTVGCSVDVRVHDYREGTPEEKAFYIELWDVGGSVGSASSVKSTRAVFYNSVNGIILVHDLTNKKSSQNLYRWSLEALSKDSSPTGIIVSNGDYDREQFAENAVPLLLIGTKFDQIPENKRNDVLTRTAFLSEDFNAEEINLDCTNPRYLAAGSSNAVKLSRFFDKVIEKRYFTRDPSQMQSFTDRRRFNFKSLHSD | soluble
16 | SASLIQRIARQACLTFRGSSTGSEGPAPGFPENLSLLKSLLTQVRAEDLNIAPRKALPQPLPRNLPPVTYMHIYETEGFSLGVFLLKSGTCIPLHDHPGMHGMLKVLYGTVRISCMDKLDTGAGHRRPPPEQQFEPPLQPLEREAVRPGVLRSRAEYTEASGPCVLTPHRDNLHQIDAVDGPAAFLDILAPPYDPEDGRDCHYYRVVEPIRPKEASGSACDLPREVWLLETPQADDFWCEGEPYPGPKVLP | soluble
17 | SAVFADLDLRAGSDLKALRGLVETAAHLGYSVVAINHIVDFKEKKQEIEKPVAVSELFTTLPIVQGKSRPIKILTRLTIIVSDPSHCNVLRATSSRARLYDVVAVFPKTEKLFHIACTHLDVDLVCITVTEKLPFYFKRPPINVAIDRGLAFELVYSPAIKDSTMRRYTISSALNLMQICKGKNVIISSAAERPLEIRGPYDVANLGLLFGLSESDAKAAVSTNCRAALLHGETRKTAFGIISTVKKPRPSEGDEDCLPASKKAKCEG | soluble
18 | SCREKTELTPDQQTLLHFIMDSYNKQRMPQEITNKILKEEFSAEENFLILTEMATNHVQVLVEFTKKLPGFQTLDHEDQIALLKGSAVEAMFLRSAEIFNKKLPSGHSDLLEERIRNSGISDEYITPMFSFYKSIGELKMTQEEYALLTAIVILSPDRQYIKDREAVEKLQEPLLDVLQKLCKIHQPENPQHFACLLGRLTELRTFNHHHAEMLMSWRVNDHKFTPLLCEIWDVQ | soluble
19 | SDALSWGHGPRLFEVFLEPTCPFSVKAFFKLDDLLAQAGEDNVTVRIRLQSQPWHMFSGVIVRCILAAATLEGGKESAKAVMTAVASHREEFEFEHHAGGPNLDATPNDIIARIERYSGLALAEAFANPELEHAVKWHTKYARQNGIHVSPTFMINGLVQPGMSSGDPVSKWVSDIG | not soluble
20 | SDLSWIKPGKVAWDWWNDWNLDGVDFVTGVNNPTYKAYIDFASANGIEYVILDEGWAVNLQADLMQVVKEIDLKELVDYAASKNVGIILWAGYHAFERDMENVCRHYAEMGVKGFKVDFMDRDDQEMTAFNYRAAEMCAKYKLILDLHGTHKPAG | not soluble
21 | SDRAEVRNIPFKLGMYLTVGGVVNSNATRFSINVGESTDSIAMHMDHRFSYGADQNVLVLNSLVHNVGWQQEERSKKFPFTKGDHFQITITFDTHTFYIQLSNGETVEFPNRNKDAAFNLIYLAGDARLTFVRLE | soluble
22 | SDRAMMNAFKEITTMADRINLPRNIVDRTNNLFKQVYEQKSLKGRANDAIASACLYIACRQEGVPRTFKEICAVSRISKKEIGRCFKLILKALETSVDLITTGDFMSRFCSNLCLPKQVQMAATHIARKAVELDLVPGRSPISVAAAAIYMASQASAEKRTQKEIGDIAGVADVTIRQSYRLIYPRAPDLFPTDFKFDTPVDKLPQL | soluble
